To fix the notation:
T1: recombinant Factor VIII (CSL627, rVIII-SingleChain) (Homo sapiens (Human), UniProt P00451 20-2351)
T1 construct: also called FVIII
T1 sequence: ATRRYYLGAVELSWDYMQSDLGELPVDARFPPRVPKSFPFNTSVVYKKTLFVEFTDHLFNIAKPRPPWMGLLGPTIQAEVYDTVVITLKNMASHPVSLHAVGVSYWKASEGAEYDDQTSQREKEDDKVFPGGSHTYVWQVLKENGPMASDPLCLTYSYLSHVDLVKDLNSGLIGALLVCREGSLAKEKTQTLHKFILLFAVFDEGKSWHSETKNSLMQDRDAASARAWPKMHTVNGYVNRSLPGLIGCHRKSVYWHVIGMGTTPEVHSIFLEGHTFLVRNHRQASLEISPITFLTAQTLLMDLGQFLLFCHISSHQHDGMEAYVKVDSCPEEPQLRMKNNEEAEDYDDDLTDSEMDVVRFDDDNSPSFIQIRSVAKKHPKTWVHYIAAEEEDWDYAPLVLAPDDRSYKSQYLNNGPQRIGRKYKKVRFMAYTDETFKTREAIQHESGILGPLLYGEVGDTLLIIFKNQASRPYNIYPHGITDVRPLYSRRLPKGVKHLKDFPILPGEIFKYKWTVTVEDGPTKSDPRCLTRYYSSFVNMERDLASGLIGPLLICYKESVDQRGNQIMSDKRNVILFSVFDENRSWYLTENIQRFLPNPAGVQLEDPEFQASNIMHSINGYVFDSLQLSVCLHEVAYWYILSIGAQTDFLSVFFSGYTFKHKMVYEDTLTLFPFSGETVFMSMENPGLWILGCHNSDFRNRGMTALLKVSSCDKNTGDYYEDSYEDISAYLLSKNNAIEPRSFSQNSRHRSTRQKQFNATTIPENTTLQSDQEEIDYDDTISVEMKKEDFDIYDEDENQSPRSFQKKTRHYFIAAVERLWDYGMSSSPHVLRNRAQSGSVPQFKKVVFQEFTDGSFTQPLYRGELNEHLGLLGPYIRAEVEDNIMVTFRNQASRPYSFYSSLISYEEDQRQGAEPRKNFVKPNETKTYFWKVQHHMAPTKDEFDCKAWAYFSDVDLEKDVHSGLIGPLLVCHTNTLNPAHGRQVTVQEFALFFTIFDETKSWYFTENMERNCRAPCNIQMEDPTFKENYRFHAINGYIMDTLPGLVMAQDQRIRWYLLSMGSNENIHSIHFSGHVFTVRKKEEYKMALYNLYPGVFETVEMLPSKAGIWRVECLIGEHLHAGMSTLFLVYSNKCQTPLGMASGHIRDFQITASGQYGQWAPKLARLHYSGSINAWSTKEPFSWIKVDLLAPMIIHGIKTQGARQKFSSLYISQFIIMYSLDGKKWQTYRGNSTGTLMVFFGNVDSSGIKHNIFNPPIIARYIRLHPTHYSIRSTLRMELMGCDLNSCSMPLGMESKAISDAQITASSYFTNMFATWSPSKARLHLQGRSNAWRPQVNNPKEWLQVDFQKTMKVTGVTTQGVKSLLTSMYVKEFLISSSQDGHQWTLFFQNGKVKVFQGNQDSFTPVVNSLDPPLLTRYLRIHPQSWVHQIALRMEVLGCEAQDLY

B1: Hu-vWF[764-1270]-8His S766W-L809V (other)
chain: SLWCRPPMVKLVCPADNLRAEGLECTKTCQNYDLECMSMGCVSGCVCPPGMVRHENRCVALERCPCFHQGKEYAPGETVKIGCNTCVCRDRKWNCTDHVCDATCSTIGMAHYLTFDGLKYLFPGECQYVLVQDYCGSNPGTFRILVGNKGCSHPSVKCKKRVTILVEGGEIELFDGEVNVKRPMKDETHFEVVESGRYIILLLGKALSVVWDRHLSISVVLKQTYQEKVCGLCGNFDGIQNNDLTSSNLQVEEDPVDFGNSWKVSSQCADTRKVPLDSSPATCHNNIMKQTMVDSSCRILTSDVFQDCNKLVDPEPYLDVCIYDTCSCESIGDCACFCDTIAAYAHVCAQHGKVVTWRTATLCPQSCEERNLRENGYECEWRYNSCAPACQVTCQHPEPLACPVQCVEGCHAHCPPGKILDELLQTCVDPEDCPVCEVAGRRFASGKKVTLNPSDPEHCQICHCDVVNLTCEACQEPGGLVVPPTDAPVSPTTLYVEDISEPPLHDFHHHHHHHH
B2: Hu-vWF[764-1270]-8His S766W-L809W (other)
chain: SLWCRPPMVKLVCPADNLRAEGLECTKTCQNYDLECMSMGCVSGCWCPPGMVRHENRCVALERCPCFHQGKEYAPGETVKIGCNTCVCRDRKWNCTDHVCDATCSTIGMAHYLTFDGLKYLFPGECQYVLVQDYCGSNPGTFRILVGNKGCSHPSVKCKKRVTILVEGGEIELFDGEVNVKRPMKDETHFEVVESGRYIILLLGKALSVVWDRHLSISVVLKQTYQEKVCGLCGNFDGIQNNDLTSSNLQVEEDPVDFGNSWKVSSQCADTRKVPLDSSPATCHNNIMKQTMVDSSCRILTSDVFQDCNKLVDPEPYLDVCIYDTCSCESIGDCACFCDTIAAYAHVCAQHGKVVTWRTATLCPQSCEERNLRENGYECEWRYNSCAPACQVTCQHPEPLACPVQCVEGCHAHCPPGKILDELLQTCVDPEDCPVCEVAGRRFASGKKVTLNPSDPEHCQICHCDVVNLTCEACQEPGGLVVPPTDAPVSPTTLYVEDISEPPLHDFHHHHHHHH
B3: Hu-vWF[764-1270]-8His S766W-S806D (other)
chain: SLWCRPPMVKLVCPADNLRAEGLECTKTCQNYDLECMSMGCVDGCLCPPGMVRHENRCVALERCPCFHQGKEYAPGETVKIGCNTCVCRDRKWNCTDHVCDATCSTIGMAHYLTFDGLKYLFPGECQYVLVQDYCGSNPGTFRILVGNKGCSHPSVKCKKRVTILVEGGEIELFDGEVNVKRPMKDETHFEVVESGRYIILLLGKALSVVWDRHLSISVVLKQTYQEKVCGLCGNFDGIQNNDLTSSNLQVEEDPVDFGNSWKVSSQCADTRKVPLDSSPATCHNNIMKQTMVDSSCRILTSDVFQDCNKLVDPEPYLDVCIYDTCSCESIGDCACFCDTIAAYAHVCAQHGKVVTWRTATLCPQSCEERNLRENGYECEWRYNSCAPACQVTCQHPEPLACPVQCVEGCHAHCPPGKILDELLQTCVDPEDCPVCEVAGRRFASGKKVTLNPSDPEHCQICHCDVVNLTCEACQEPGGLVVPPTDAPVSPTTLYVEDISEPPLHDFHHHHHHHH
B4: Hu-vWF[764-1270]-8His S766W-L809Y (other)
chain: SLWCRPPMVKLVCPADNLRAEGLECTKTCQNYDLECMSMGCVSGCYCPPGMVRHENRCVALERCPCFHQGKEYAPGETVKIGCNTCVCRDRKWNCTDHVCDATCSTIGMAHYLTFDGLKYLFPGECQYVLVQDYCGSNPGTFRILVGNKGCSHPSVKCKKRVTILVEGGEIELFDGEVNVKRPMKDETHFEVVESGRYIILLLGKALSVVWDRHLSISVVLKQTYQEKVCGLCGNFDGIQNNDLTSSNLQVEEDPVDFGNSWKVSSQCADTRKVPLDSSPATCHNNIMKQTMVDSSCRILTSDVFQDCNKLVDPEPYLDVCIYDTCSCESIGDCACFCDTIAAYAHVCAQHGKVVTWRTATLCPQSCEERNLRENGYECEWRYNSCAPACQVTCQHPEPLACPVQCVEGCHAHCPPGKILDELLQTCVDPEDCPVCEVAGRRFASGKKVTLNPSDPEHCQICHCDVVNLTCEACQEPGGLVVPPTDAPVSPTTLYVEDISEPPLHDFHHHHHHHH
B5: Hu-vWF[764-1270]-8His S766W-S806E (other)
chain: SLWCRPPMVKLVCPADNLRAEGLECTKTCQNYDLECMSMGCVEGCLCPPGMVRHENRCVALERCPCFHQGKEYAPGETVKIGCNTCVCRDRKWNCTDHVCDATCSTIGMAHYLTFDGLKYLFPGECQYVLVQDYCGSNPGTFRILVGNKGCSHPSVKCKKRVTILVEGGEIELFDGEVNVKRPMKDETHFEVVESGRYIILLLGKALSVVWDRHLSISVVLKQTYQEKVCGLCGNFDGIQNNDLTSSNLQVEEDPVDFGNSWKVSSQCADTRKVPLDSSPATCHNNIMKQTMVDSSCRILTSDVFQDCNKLVDPEPYLDVCIYDTCSCESIGDCACFCDTIAAYAHVCAQHGKVVTWRTATLCPQSCEERNLRENGYECEWRYNSCAPACQVTCQHPEPLACPVQCVEGCHAHCPPGKILDELLQTCVDPEDCPVCEVAGRRFASGKKVTLNPSDPEHCQICHCDVVNLTCEACQEPGGLVVPPTDAPVSPTTLYVEDISEPPLHDFHHHHHHHH
B6: Hu-vWF[764-1270]-8His S766W-S806F (other)
chain: SLWCRPPMVKLVCPADNLRAEGLECTKTCQNYDLECMSMGCVFGCLCPPGMVRHENRCVALERCPCFHQGKEYAPGETVKIGCNTCVCRDRKWNCTDHVCDATCSTIGMAHYLTFDGLKYLFPGECQYVLVQDYCGSNPGTFRILVGNKGCSHPSVKCKKRVTILVEGGEIELFDGEVNVKRPMKDETHFEVVESGRYIILLLGKALSVVWDRHLSISVVLKQTYQEKVCGLCGNFDGIQNNDLTSSNLQVEEDPVDFGNSWKVSSQCADTRKVPLDSSPATCHNNIMKQTMVDSSCRILTSDVFQDCNKLVDPEPYLDVCIYDTCSCESIGDCACFCDTIAAYAHVCAQHGKVVTWRTATLCPQSCEERNLRENGYECEWRYNSCAPACQVTCQHPEPLACPVQCVEGCHAHCPPGKILDELLQTCVDPEDCPVCEVAGRRFASGKKVTLNPSDPEHCQICHCDVVNLTCEACQEPGGLVVPPTDAPVSPTTLYVEDISEPPLHDFHHHHHHHH
B7: Hu-vWF[764-1270]-8His S766W-S806A (other)
chain: SLWCRPPMVKLVCPADNLRAEGLECTKTCQNYDLECMSMGCVAGCLCPPGMVRHENRCVALERCPCFHQGKEYAPGETVKIGCNTCVCRDRKWNCTDHVCDATCSTIGMAHYLTFDGLKYLFPGECQYVLVQDYCGSNPGTFRILVGNKGCSHPSVKCKKRVTILVEGGEIELFDGEVNVKRPMKDETHFEVVESGRYIILLLGKALSVVWDRHLSISVVLKQTYQEKVCGLCGNFDGIQNNDLTSSNLQVEEDPVDFGNSWKVSSQCADTRKVPLDSSPATCHNNIMKQTMVDSSCRILTSDVFQDCNKLVDPEPYLDVCIYDTCSCESIGDCACFCDTIAAYAHVCAQHGKVVTWRTATLCPQSCEERNLRENGYECEWRYNSCAPACQVTCQHPEPLACPVQCVEGCHAHCPPGKILDELLQTCVDPEDCPVCEVAGRRFASGKKVTLNPSDPEHCQICHCDVVNLTCEACQEPGGLVVPPTDAPVSPTTLYVEDISEPPLHDFHHHHHHHH

The target of the assay is T1, recombinant Factor VIII (CSL627, …). Nature of the assay: SPR, anti-His capture, FVIII injected, 37 C. An outline of the steps: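 Anti-His antibody (14,000 RU) captures each mutant from culture supernatant to 40-150 RU. Single-concentration FVIII injection (1 nM) over 5 min, then dissociation tracked for 5 min. Kinetics derive from 1:1 fitting after double referencing.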
A general note: SPR reads the build-up and loss of mass on a sensor chip optically.
For orientation: Kd means the concentration at which binding is half-saturated. The koff is the first-order rate constant of dissociation. The kon is the second-order rate constant of association. Regarding B1, the Kd stood at 122 pM, the koff was 0.00094 s⁻¹ and the kon came out at 7.7e+06 M⁻¹ s⁻¹.

Turning to B2, the Kd stood at 648 pM, the koff was found to be 0.00312 s⁻¹ and the kon is 4.81e+06 M⁻¹ s⁻¹.

For B3, the Kd stood at 164 pM, the dissociation rate constant (koff) stood at 0.000688 s⁻¹ and the kon was 4.2e+06 M⁻¹ s⁻¹.

On to B4, for which the Kd was 500 pM, the koff came out at 0.00339 s⁻¹ and the kon was 6.77e+06 M⁻¹ s⁻¹.

Regarding B5, the Kd worked out at 217 pM, the koff was determined as 0.00129 s⁻¹ and the kon was 5.93e+06 M⁻¹ s⁻¹.

In the case of B6, the binding result was “no binding”.

For the molecule B7, the Kd came out at 77.8 pM, the koff turned out to be 0.000376 s⁻¹ and the kon is 4.84e+06 M⁻¹ s⁻¹.

Source of the values: patent US20190015483A1 (CSL BEHRING RECOMBINANT FACILITY, published 2019).
